Source: US20240148883A1, “Branched Linkers for Antibody-Drug Conjugates and Methods of Use Thereof” (priority 2021, published 2024)
Like-named read-outs stand apart in the source and are kept apart here.

Assays:
[1] = Aggregation of conjugates by analytical size exclusion chromatography (SEC): % monomeric / % HMW; assay type: physicochemical
Experimental: (§1) Methods: Antibodies (15 mg/mL) bearing one or two aldehyde tags (single or double-tagged constructs) were conjugated to linker-payloads at 1.1 or 1.7 mM, respectively. Reactions proceeded for 72 h at 37° C. in 20 mM sodium citrate, 50 mM NaCl pH 5.5 (20/50 buffer) containing 0.85-2.5% DMA. […] After conjugation, free drug was removed using a 30 kD MWCO 0.5 mL Amicon spin concentrator. Samples were added to the spin concentrator, centrifuged at 15,000×g for 7 min, then diluted with 450 μL 20 mM sodium citrate, 50 mM NaCl pH 5.5 and centrifuged again. The process was repeated 10 times. To determine the DAR of the final product, ADCs were examined by analytical chromatography using HIC (Tosoh #14947) or PLRP-RP (Agilent PL1912-1802 1000 A, 8 um, 50×2.1 mm) columns. HIC analysis used mobile phase A: 1.5 M ammonium sulfate, 25 mM sodium phosphate pH 7.0, and mobile phase B: 25% isopropanol, 18.75 mM sodium phosphate pH 7.0. PLRP analysis used mobile phase A: 0.1% trifluoroacetic acid in water, and mobile phase B: 0.1% trifluoroacetic acid in acetonitrile. Prior to PLRP analysis, sample was denatured with the addition of 50 mM DTT, 4 M guanidine HCl (final concentrations) and heating at 37° C. for 30 min. To determine aggregation, samples were analyzed using analytical size exclusion chromatography (SEC; Tosoh #08541) with a mobile phase of 300 mM NaCl, 25 mM sodium phosphate pH 6.8 with 5% isopropanol.

[2] = assay type: physicochemical
Experimental: as §1

[3] = conjugated to antibody against Target 1
[4] = conjugated to antibody against Target 2
[5] = conjugated to antibody against Target 3
[6] = conjugated to antibody against Target 4
[7] = conjugated to antibody against Target 5
[8] = conjugated to antibody against Target 7
[9] = conjugated to antibody against Target 8
[10] = conjugated to antibody against Target 9
[11] = conjugated to antibody against Target 10

SMILES | % HMW (high-molecular weight species) [1, 3] [%] | % HMW (high-molecular weight species) [1, 4] [%] | % HMW (high-molecular weight species) [1, 5] [%] | % HMW (high-molecular weight species) [1, 6] [%] | % HMW (high-molecular weight species) [1, 7] [%] | % HMW (high-molecular weight species) ([1]; conjugated to antibody against Target 6) [%] | % HMW (high-molecular weight species) [1, 8] [%] | % HMW (high-molecular weight species) [1, 9] [%] | % HMW (high-molecular weight species) [1, 10] [%] | % HMW (high-molecular weight species) [1, 11] [%] | DAR [2, 3] | DAR [2, 4] | DAR [2, 5] | DAR [2, 6] | DAR [2, 7] | DAR [2, 8] | DAR [2, 9] | DAR [2, 10] | DAR [2, 11]
CC[C@@]1(O)C(=O)OCc2c1cc1n(c2=O)Cc2c-1nc1ccccc1c2CCN(C(=O)OCc1ccc(NC(=O)[C@H](C)NC(=O)[C@@H](NC(=O)CCC(=O)Nc2ccc3c(c2)cc(CN(C)NC)n3CCC(=O)N[C@H](C(=O)N[C@@H](C)C(=O)Nc2ccc(COC(=O)N(CCc3c4c(nc5ccccc35)-c3cc5c(c(=O)n3C4)COC(=O)[C@]5(O)CC)C(C)C)cc2O[C@@H]2O[C@H](C(=O)O)[C@@H](O)[C@H](O)[C@H]2O)C(C)C)C(C)C)c(O[C@@H]2O[C@H](C(=O)O)[C@@H](O)[C@H](O)[C@H]2O)c1)C(C)C [Compound 18] | 1.8 | 6.5 | 4.3 | 0.6 | 0.8 | 2.0 | 1.6 | 3.4 | 1.5 | 2.7 | 6.82 | 6.16 | 4.31 | 6.97 | 5.45 | 6.88 | 6.1 | 6.84 | 5.49
CC[C@@]1(O)C(=O)OCc2c1cc1n(c2=O)Cc2c-1nc1ccccc1c2CCN(C(=O)OCc1ccc(NC(=O)[C@H](C)NC(=O)[C@@H](NC(=O)CCOCCOCCOCCOCCNC(=O)CCC(=O)Nc2ccc3c(c2)cc(CN(C)NC)n3CCC(=O)NCCOCCOCCOCCOCCC(=O)N[C@H](C(=O)N[C@@H](C)C(=O)Nc2ccc(COC(=O)N(CCc3c4c(nc5ccccc35)-c3cc5c(c(=O)n3C4)COC(=O)[C@]5(O)CC)C(C)C)cc2O[C@@H]2O[C@H](C(=O)O)[C@@H](O)[C@H](O)[C@H]2O)C(C)C)C(C)C)c(O[C@@H]2O[C@H](C(=O)O)[C@@H](O)[C@H](O)[C@H]2O)c1)C(C)C [Compound 36] |  | 4.1 | 6.1 |  | 3.3 |  |  | 3.5 | 2.2 | 6.2 |  | 6.78 | 6.33 |  | 6.88 |  | 6.55 | 6.32 | 6.33
